Measurements as given in the supplement of paper PMC10567573.

B1: IMPA1 (parent)
chain: FIGEESVAAGEKSILTDNPTWIID

Variants of: B1
Assay: protein stability index of a GFP-peptide fusion (GPS, HEK-293T) (PSI 1-6); higher = more stable
Settings: c terminus: a fixed tail appended
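Note: lentivirally expressed fusions sorted by FACS into six bins by GFP to DsRed ratio, PSI derived from sequencing read proportions per bin multiplied by bin number.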

Variant	protein stability index
FIGEESVAAGEISILTDNPTWIID [K12I]	1.61
FIGEESVAAGEFSILTDNPTWIID [K12F]	1.56
FIGEESVAAGENSILTDNPTWIID [K12N]	1.89
FIGEESVAAGEVSILTDNPTWIID [K12V]	2.11
FIGEESVAAGEMSILTDNPTWIID [K12M]	2.29
FIGEESVAAGEESILTDNPTWIID [K12E]	2.21
FIGEESVAAGERSILTDNPTWIID [K12R]	2.57
FIGEESVAAGEWSILTDNPTWIID [K12W]	1.97
FIGEESVAAGEYSILTDNPTWIID [K12Y]	2.35
FIGEESVAAGEQSILTDNPTWIID [K12Q]	1.97
FIGEESVAAGEHSILTDNPTWIID [K12H]	2.06
FIGEESVAAGELSILTDNPTWIID [K12L]	2.25
FIGEESVAAGEPSILTDNPTWIID [K12P]	2.45
FIGEESVAAGECSILTDNPTWIID [K12C]	1.93
FIGEESVAAGEDSILTDNPTWIID [K12D]	2.27
FIGEESVAAGEGSILTDNPTWIID [K12G]	1.91
FIGEESVAAGETSILTDNPTWIID [K12T]	2.32
FIGEESVAAGEASILTDNPTWIID [K12A]	2.25
FIGEESVAAGESSILTDNPTWIID [K12S]	2.12
FIGWESVAAGEKSILTDNPTWIID [E4W]	3.71
FIGQESVAAGEKSILTDNPTWIID [E4Q]	1.5
FIGVESVAAGEKSILTDNPTWIID [E4V]	1.53
FIGYESVAAGEKSILTDNPTWIID [E4Y]	1.9
FIGHESVAAGEKSILTDNPTWIID [E4H]	1.76

Variant	protein stability index
FIGCESVAAGEKSILTDNPTWIID [E4C]	2.04
FIGIESVAAGEKSILTDNPTWIID [E4I]	1.84
FIGPESVAAGEKSILTDNPTWIID [E4P]	1.77
FIGMESVAAGEKSILTDNPTWIID [E4M]	2.35
FIGLESVAAGEKSILTDNPTWIID [E4L]	1.8
FIGAESVAAGEKSILTDNPTWIID [E4A]	2.54
FIGFESVAAGEKSILTDNPTWIID [E4F]	3.31
FIGKESVAAGEKSILTDNPTWIID [E4K]	1.83
FIGTESVAAGEKSILTDNPTWIID [E4T]	1.85
FIGDESVAAGEKSILTDNPTWIID [E4D]	2.01
FIGGESVAAGEKSILTDNPTWIID [E4G]	2.14
FIGNESVAAGEKSILTDNPTWIID [E4N]	1.98
FIGSESVAAGEKSILTDNPTWIID [E4S]	1.8
FIGRESVAAGEKSILTDNPTWIID [E4R]	2.04
FIGEESVAIGEKSILTDNPTWIID [A9I]	1.81
FIGEESVARGEKSILTDNPTWIID [A9R]	1.5
FIGEESVAQGEKSILTDNPTWIID [A9Q]	2.24
FIGEESVAVGEKSILTDNPTWIID [A9V]	2.31
FIGEESVADGEKSILTDNPTWIID [A9D]	2.98
FIGEESVAYGEKSILTDNPTWIID [A9Y]	2.59
FIGEESVAWGEKSILTDNPTWIID [A9W]	1.87
FIGEESVASGEKSILTDNPTWIID [A9S]	1.95
FIGEESVAHGEKSILTDNPTWIID [A9H]	1.8
FIGEESVAMGEKSILTDNPTWIID [A9M]	1.75

Variant	protein stability index
FIGEESVAKGEKSILTDNPTWIID [A9K]	1.96
FIGEESVAEGEKSILTDNPTWIID [A9E]	2.42
FIGEESVAGGEKSILTDNPTWIID [A9G]	2.09
FIGEESVAFGEKSILTDNPTWIID [A9F]	2.04
FIGEESVANGEKSILTDNPTWIID [A9N]	2.03
FIGEESVACGEKSILTDNPTWIID [A9C]	1.84
FIGEESVATGEKSILTDNPTWIID [A9T]	2.1
FIGEESVALGEKSILTDNPTWIID [A9L]	1.78
FIGEESVAPGEKSILTDNPTWIID [A9P]	2.52
FIGEEGVAAGEKSILTDNPTWIID [S6G]	2.42
FIGEEIVAAGEKSILTDNPTWIID [S6I]	1.73
FIGEERVAAGEKSILTDNPTWIID [S6R]	1.51
FIGEELVAAGEKSILTDNPTWIID [S6L]	2.24
FIGEEQVAAGEKSILTDNPTWIID [S6Q]	2.42
FIGEEKVAAGEKSILTDNPTWIID [S6K]	1.57
FIGEETVAAGEKSILTDNPTWIID [S6T]	2.23
FIGEEPVAAGEKSILTDNPTWIID [S6P]	3.1
FIGEEDVAAGEKSILTDNPTWIID [S6D]	2.56
FIGEENVAAGEKSILTDNPTWIID [S6N]	2.25
FIGEEEVAAGEKSILTDNPTWIID [S6E]	3.07
FIGEEMVAAGEKSILTDNPTWIID [S6M]	2.07
FIGEEAVAAGEKSILTDNPTWIID [S6A]	2.01
FIGEEYVAAGEKSILTDNPTWIID [S6Y]	1.51
FIGEEWVAAGEKSILTDNPTWIID [S6W]	2.53

Variant	protein stability index
FIGEEVVAAGEKSILTDNPTWIID [S6V]	1.7
FIGEECVAAGEKSILTDNPTWIID [S6C]	1.7
FIGEEHVAAGEKSILTDNPTWIID [S6H]	2.29
FIGEEFVAAGEKSILTDNPTWIID [S6F]	1.81
FIWEESVAAGEKSILTDNPTWIID [G3W]	1.59
FIVEESVAAGEKSILTDNPTWIID [G3V]	2.8
FIYEESVAAGEKSILTDNPTWIID [G3Y]	1.88
FIGEESVAAYEKSILTDNPTWIID [G10Y]	1.85
FIGEESVAAMEKSILTDNPTWIID [G10M]	2.2
FIGEESVAAVEKSILTDNPTWIID [G10V]	2.37
FIGEESVAAQEKSILTDNPTWIID [G10Q]	2.67
FIGEESVAAAEKSILTDNPTWIID [G10A]	2.18
FIGEESVAAKEKSILTDNPTWIID [G10K]	2.01
FIGEESVAADEKSILTDNPTWIID [G10D]	2.48
FIGEESVAAHEKSILTDNPTWIID [G10H]	1.87
FIGEESVAAWEKSILTDNPTWIID [G10W]	1.83
FIGEESVAACEKSILTDNPTWIID [G10C]	2.21
FIGEESVAALEKSILTDNPTWIID [G10L]	2.41
FIGEESVAAEEKSILTDNPTWIID [G10E]	2.8
FIGEESVAAPEKSILTDNPTWIID [G10P]	2.15
FIGEESVAAFEKSILTDNPTWIID [G10F]	1.85
FIGEESVAANEKSILTDNPTWIID [G10N]	2.21
